Source: the supplement of paper PMC7877785
± gives the uncertainty stated by the source.

Assay: self-splicing fitness, log relative to wild type (ln ratio); higher = more splicing; Tetrahymena group I intron in knt gene, E. coli kanamycin selection, DiMSum; sequences stand for … in CUCUCU…GGAGGGAAAAGUUAUCAGGCAUGCACCUGGUAGCUAGUCUUUAAACCAAUAGAUUGCAUCGGUUUAAAAGGCAAGACCGUCAAAUUGCGGGAAAGGGGUCAACAGCCGUUCAGUACCAAGUCUCAGGGGAAACUUUGAGAUGGCCUUGCAAAGGGUAUGGUAAUAAGCUGACGGACAUGGUCCUAACCACGCAGCCAAGUCCUAAGUCAACAGAUCUUCUGUUGAUAUGGAUGCAGUUCACAGACUAAAUGUCGGUCGGGGAAGAUGUAUUCUUCUCAUAAGAUAUAGUCGGACCUCUCCUUAAUGGGAGCUAGCGGAUGAAGUGAUGCAACACUGGAGCCGCUGGGAACUAAUUUGUAUGCGAAAGUAUAUUGAUUAGUUUUGGAGUACUCGUGGUCG
Method in brief: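 Six replicate transformations of E. coli BL21(DE3) with a pET-22b(+) library were grown overnight at 37°C or 30°C. The library randomised all eight P1ex-region intron nucleotides, the intron lying in the knt kanamycin-resistance gene, and plates were LB agar with or without 25 μg/mL kanamycin plus 100 μg/mL carbenicillin, 50 μM IPTG and 0.2% rhamnose. Pooled colonies were amplicon-sequenced on an Illumina HiSeq 2500, and fitness is the DiMSum error-weighted combination of wild-type-normalised replicate fold changes, kanamycin versus none.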

Row | Sequence | self-splicing fitness (ln) (30 °C) | self-splicing fitness (ln) (37 °C)
1 | UGGCAGCAAUAUUACGCAUU | -1.05 ± 0.097 | -0.267 ± 0.089
2 | CGGGAGCAAUAUUACGAGGA | -4.2 ± 0.39 | -2.53 ± 0.28
3 | GCGGAGCAAUAUUACGUUAU | -3.7 ± 0.19 | -2.81 ± 0.15
4 | GUUCAGCAAUAUUACGAGCA | – | -1.75 ± 0.3
5 | CAUGAGCAAUAUUACGCGUC | – | -2.76 ± 0.31
6 | CGAGAGCAAUAUUACGGCCG | -3.76 ± 0.43 | -1.02 ± 0.3
7 | UCCGAGCAAUAUUACGGGUG | -1.97 ± 0.089 | -1.66 ± 0.099
8 | GGUCAGCAAUAUUACGCCAA | -1.17 ± 0.25 | -2.06 ± 0.22
9 | CAUCAGCAAUAUUACGCACC | -3.56 ± 0.14 | -1.61 ± 0.12
10 | GAGUAGCAAUAUUACGGUAA | -2.23 ± 0.18 | -1.25 ± 0.16
11 | GCUGAGCAAUAUUACGCGAC | -3.36 ± 0.32 | -1 ± 0.3
12 | CAAUAGCAAUAUUACGGACU | -4.49 ± 0.34 | -2.11 ± 0.23
13 | AGCGAGCAAUAUUACGAGGU | -3.69 ± 0.24 | -2.48 ± 0.3
14 | GGAUAGCAAUAUUACGGAUU | -1.79 ± 0.12 | -0.787 ± 0.12
15 | CAGGAGCAAUAUUACGUCUG | -2.47 ± 0.22 | –
16 | CCUUAGCAAUAUUACGGGAC | -3.96 ± 0.46 | –
17 | GCAAAGCAAUAUUACGACGU | 0.0721 ± 0.072 | 0.116 ± 0.096
18 | CCGAAGCAAUAUUACGCAAU | -3.92 ± 0.4 | -1.94 ± 0.23
19 | ACCCAGCAAUAUUACGGUAA | -1.26 ± 0.09 | -0.477 ± 0.087
20 | UGGGAGCAAUAUUACGUCUA | -1.22 ± 0.12 | -0.187 ± 0.16
21 | ACAUAGCAAUAUUACGAGGU | -3.59 ± 0.16 | -3.3 ± 0.15
22 | UUUGAGCAAUAUUACGGCUA | -0.914 ± 0.23 | -1.2 ± 0.21
23 | CGCUAGCAAUAUUACGACCG | -1.12 ± 0.11 | -0.347 ± 0.15
24 | CCAUAGCAAUAUUACGUUCA | -3.17 ± 0.26 | -2.6 ± 0.44
25 | UGACAGCAAUAUUACGUUGU | -3.48 ± 0.15 | -2.58 ± 0.2
26 | ACUCAGCAAUAUUACGGGCC | -1.32 ± 0.092 | -1.13 ± 0.11

Row | Sequence | self-splicing fitness (ln) (30 °C) | self-splicing fitness (ln) (37 °C)
27 | AAUCAGCAAUAUUACGUAGU | -0.0974 ± 0.059 | 0.211 ± 0.074
28 | CGAAAGCAAUAUUACGUUCG | -3.44 ± 0.14 | -2.62 ± 0.15
29 | GCCUAGCAAUAUUACGCGCA | -1.21 ± 0.12 | -0.303 ± 0.11
30 | CUAGAGCAAUAUUACGUUUG | -1.33 ± 0.088 | -0.528 ± 0.1
31 | AGCUAGCAAUAUUACGUGCU | -3.87 ± 0.35 | -2.44 ± 0.23
32 | GAUCAGCAAUAUUACGGAUC | -2.99 ± 0.2 | -2.49 ± 0.36
33 | UACUAGCAAUAUUACGACUC | -1.8 ± 0.42 | -0.907 ± 0.34
34 | UCGAAGCAAUAUUACGGUUA | -0.579 ± 0.12 | -0.97 ± 0.097
35 | AGGCAGCAAUAUUACGACUA | 0.127 ± 0.11 | -0.125 ± 0.12
36 | GUUUAGCAAUAUUACGUUUG | -3.92 ± 0.33 | -1.45 ± 0.21
37 | AAAAAGCAAUAUUACGUUAG | -3.37 ± 0.17 | -2.61 ± 0.16
38 | ACAGAGCAAUAUUACGACAA | – | -2.31 ± 0.21
39 | UAGUAGCAAUAUUACGCCCA | 0.0306 ± 0.38 | –
40 | UGGAAGCAAUAUUACGGUAG | -1.89 ± 0.12 | -1.82 ± 0.11
41 | GCACAGCAAUAUUACGGGAA | -1.47 ± 0.15 | -1.42 ± 0.13
42 | UAACAGCAAUAUUACGUAGG | -2.08 ± 0.065 | -1.65 ± 0.079
43 | UAUAAGCAAUAUUACGGAAA | -2.19 ± 0.37 | -1.48 ± 0.33
44 | UCCAAGCAAUAUUACGUGCA | -0.24 ± 0.083 | 0.425 ± 0.11
45 | GCACAGCAAUAUUACGUGCA | -3.1 ± 0.12 | -2.04 ± 0.093
46 | ACAAAGCAAUAUUACGCAUC | -3.49 ± 0.21 | -1.74 ± 0.2
47 | GGGAAGCAAUAUUACGAAUU | -0.943 ± 0.23 | -0.115 ± 0.21
48 | AUCCAGCAAUAUUACGUGUU | -2.74 ± 0.094 | -2.45 ± 0.12
49 | GGCUAGCAAUAUUACGGUGA | -0.0349 ± 0.072 | 0.281 ± 0.086
50 | AGACAGCAAUAUUACGAGAA | -2.15 ± 0.37 | -2.43 ± 0.31
51 | UCAAAGCAAUAUUACGACCC | -3.88 ± 0.35 | -2.34 ± 0.39
52 | GCGCAGCAAUAUUACGUAGC | -1.95 ± 0.11 | -0.709 ± 0.12

Row | Sequence | self-splicing fitness (ln) (30 °C) | self-splicing fitness (ln) (37 °C)
53 | GAGCAGCAAUAUUACGAUGU | -3.19 ± 0.15 | -1.37 ± 0.11
54 | GUCAAGCAAUAUUACGAUUU | -0.962 ± 0.08 | -1.42 ± 0.11
55 | CAUCAGCAAUAUUACGUCGC | -3.05 ± 0.18 | -2.11 ± 0.23
56 | UGUGAGCAAUAUUACGUGGA | -2.53 ± 0.15 | -3.05 ± 0.22
57 | CUGCAGCAAUAUUACGGCCG | -0.291 ± 0.12 | -0.672 ± 0.14
58 | AUUUAGCAAUAUUACGCUCA | -1.14 ± 0.18 | 0.0165 ± 0.19
59 | UCAUAGCAAUAUUACGAGAA | -2.05 ± 0.3 | -2.55 ± 0.36
60 | ACCAAGCAAUAUUACGACGG | -0.86 ± 0.08 | 0.495 ± 0.1
61 | AGGCAGCAAUAUUACGUGGC | -2.88 ± 0.2 | -2.58 ± 0.22
62 | UGACAGCAAUAUUACGCUAU | -3.7 ± 0.2 | -1.09 ± 0.1
63 | ACAUAGCAAUAUUACGUGGG | -3.52 ± 0.12 | -2.75 ± 0.12
64 | ACCAAGCAAUAUUACGUGUC | -2.94 ± 0.11 | -3.34 ± 0.18
65 | UAUAAGCAAUAUUACGAUAA | -1.17 ± 0.12 | -0.947 ± 0.12
66 | AUGUAGCAAUAUUACGUUCU | -1.05 ± 0.082 | -0.469 ± 0.094
67 | GGGGAGCAAUAUUACGCCUG | -2.33 ± 0.15 | -0.491 ± 0.13
68 | AAGAAGCAAUAUUACGCGAU | -3.59 ± 0.41 | -2 ± 0.42
69 | GGAGAGCAAUAUUACGAUGU | -1.92 ± 0.15 | -1.74 ± 0.28
70 | CCUUAGCAAUAUUACGUGGU | -4.41 ± 0.36 | -1.91 ± 0.23
71 | UUCCAGCAAUAUUACGUUGC | -2.4 ± 0.15 | -2.47 ± 0.33
72 | UCUGAGCAAUAUUACGGCUU | -2.02 ± 0.32 | -2.34 ± 0.32
73 | GCACAGCAAUAUUACGUUCA | -0.911 ± 0.054 | -0.855 ± 0.062
74 | AUAGAGCAAUAUUACGAAGU | -0.306 ± 0.1 | -0.662 ± 0.14
75 | CGAGAGCAAUAUUACGUAAG | -2.59 ± 0.13 | -1.26 ± 0.15
76 | CAUUAGCAAUAUUACGGGUA | -1.06 ± 0.11 | -0.972 ± 0.13
77 | UUGGAGCAAUAUUACGAUUC | – | -1.85 ± 0.32
